Data taken from paper PMC4005879 (Bioorganic & medicinal chemistry letters, 2014).
Read-outs that look alike come from different tables or passages of the source.

How the values were obtained:
[1] = target: capsid assembly inhibitor (CAI) peptide; experiment: ITC
[2] = target: HIV capsid protein p24 CTD (Human immunodeficiency virus 1) (UniProt O93182); conditions: cited from earlier work
HIV-1 [3] = conditions: read-out: MT-2 cells IC50, multi-cycle infection assay, ref [8]; cited from earlier work
HIV-1 [4] = conditions: read-out: TZM-b1 cells IC50; single-cycle assay, TZM-bl cells; ref [8]; cited from earlier work

Question: With “C-terminal domain (CTD) of the HIV capsid protein p24, M184A/W185A (domain or fragment)” as the substance, how does the Kd [1] read?
Answer: 8.3 µM

Question: And the dH [1]?
Answer: -39.5 kJ/mol

Question: What about the stoichiometry N [1] of the same substance?
Answer: 0.98

Question: Which Kd [2] does the source give for CAI here?
Answer: 15 µM

Question: For “ISFR8ELLDYYS5ESGS (sidechain bridge or staple) [NYAD-36]”, which IC50 (HIV-1 [3]) is on record?
Answer: 1.5 ± 0.17 µM

Question: What about the IC50 (HIV-1 [4]) of the same substance?
Answer: 2 ± 0.4 µM
